This test addresses CPR-DA: human cytochrome P450 reductase doubly labelled with Cy5 (donor) and Alexa 750 (acceptor) (human) (UniProt P16435).
Chain of UniProt P16435 (P16435 61-677): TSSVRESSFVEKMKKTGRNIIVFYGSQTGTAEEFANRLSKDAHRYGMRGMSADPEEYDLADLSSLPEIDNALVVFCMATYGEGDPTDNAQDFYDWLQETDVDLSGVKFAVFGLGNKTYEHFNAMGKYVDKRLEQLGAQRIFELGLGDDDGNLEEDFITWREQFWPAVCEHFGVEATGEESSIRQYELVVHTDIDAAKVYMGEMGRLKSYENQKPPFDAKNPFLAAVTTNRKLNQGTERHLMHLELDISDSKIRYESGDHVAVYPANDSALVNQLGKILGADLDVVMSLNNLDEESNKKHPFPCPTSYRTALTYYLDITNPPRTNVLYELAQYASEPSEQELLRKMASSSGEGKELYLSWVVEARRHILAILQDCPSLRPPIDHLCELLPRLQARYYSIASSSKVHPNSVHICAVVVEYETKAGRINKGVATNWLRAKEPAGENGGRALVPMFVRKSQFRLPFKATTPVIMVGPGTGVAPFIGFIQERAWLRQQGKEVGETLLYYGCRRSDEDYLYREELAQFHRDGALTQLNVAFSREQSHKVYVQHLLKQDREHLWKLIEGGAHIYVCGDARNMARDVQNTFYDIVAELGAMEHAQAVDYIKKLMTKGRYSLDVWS

As to “bovine heart cytochrome c (from UniProt P62894 1-105) (natural protein)”, the second-order rate constant of ferric cyt c reduction by equimolar NADPH-reduced CPR-DA, first kinetic phase (UV-Vis double-mixing stopped-flow) stood at 1.01e+06 M⁻¹ s⁻¹ and the second-order rate constant of ferric cyt c reduction by equimolar NADPH-reduced CPR-DA, second kinetic phase (UV-Vis double-mixing stopped-flow) is 340000 M⁻¹ s⁻¹.

Values taken from publication PMC4973710.
